These results are taken from article PMC11213948 (2024).

In this assay the target is G5_(1–1508)-FLAG. Description: pull-down. The settings on record: HEK293 cell lysates; western blot with anti-FLAG and anti-Xpress; n = 2; read off a plot. (In general: Immunoblotting shows a protein as a band on a membrane.)

For “Xpress-His G5_(1–1508) mutant A951E [not stated] / G5_(1–1508)-FLAG [not stated] chain 1 A951E”, the response (relative intensity (PD/In)) came to 1.3.
